This is an account of results in patent US20220064329A1 (Novo Nordisk, published 2022).

T1: recombinant human activated Factor VII (FVIIa) (human, UniProt P08709 61-212; P08709 213-466, ten glutamate residues of the Gla domain may be gamma-carboxylated)
T1 construct: chains tethered by a disulfide bond; also called Factor VIIa; rFVIIa
T1 sequence 1: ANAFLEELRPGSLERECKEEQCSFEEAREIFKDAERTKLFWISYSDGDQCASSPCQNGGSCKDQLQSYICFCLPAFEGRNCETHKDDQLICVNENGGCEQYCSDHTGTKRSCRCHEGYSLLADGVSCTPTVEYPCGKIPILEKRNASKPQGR
T1 sequence 2: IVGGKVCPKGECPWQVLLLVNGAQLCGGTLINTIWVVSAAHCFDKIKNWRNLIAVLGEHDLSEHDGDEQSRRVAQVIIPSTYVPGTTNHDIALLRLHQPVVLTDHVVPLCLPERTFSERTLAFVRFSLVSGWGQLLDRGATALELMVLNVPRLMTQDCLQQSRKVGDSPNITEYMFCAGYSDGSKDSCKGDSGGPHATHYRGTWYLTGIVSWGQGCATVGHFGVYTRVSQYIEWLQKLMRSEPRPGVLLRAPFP

B1: VH SEQ ID NO 562 / VL SEQ ID NO 462 (antibody, IgG4, V domains shown)
VH: QVQLQESGPGLVKPSDTLSLTCAVSGYSISSDSAWSWIRQPPGKGLEWIGYIQYSGSTNYNPSLKSRVTMSRDTSKNQFSLKLSSVTALDTAVYYCARSVNYYGNSFAVGPWGQGTLVTVSS
VL: EIVLTQSPATLSLSPGERATLSCRASQGVSDYLHWYQQKPGQAPRLLIKYASQPATGIPARFSGSGSGTDFTLTISSLEPEDFAVYYCQNGHSFPLTFGAGTKLEIK
notes: humanized 11F2; IgG4 S228P/kappa
B2: VH SEQ ID NO 570 / VL SEQ ID NO 390 (antibody, IgG4, V domains shown)
VH: B1 VH with L89A
VL: B1 VL with H34A, Q42E, A100Q
notes: as for B1
B3: VH SEQ ID NO 570 / VL SEQ ID NO 326 (antibody, IgG4, V domains shown)
VH: B1 VH with L89A
VL: B1 VL with V29I, Q42E, A51T, A84G, I106L
notes: as for B1
B4: VH SEQ ID NO 570 / VL SEQ ID NO 358 (antibody, IgG4, V domains shown)
VH: B1 VH with L89A
VL: B1 VL with V29I, A51T, A100Q
notes: as for B1
B5: VH SEQ ID NO 570 / VL SEQ ID NO 334 (antibody, IgG4, V domains shown)
VH: B1 VH with L89A
VL: B1 VL with V29I, A100Q
notes: as for B1
B6: VH SEQ ID NO 562 / VL SEQ ID NO 502 (antibody, IgG4, V domains shown)
VH: B1 VH
VL: B1 VL with A51T, A100Q
notes: as for B1
B7: VH SEQ ID NO 562 / VL SEQ ID NO 478 (antibody, IgG4, V domains shown)
VH: B1 VH
VL: B1 VL with N90Q, A100Q
notes: as for B1
B8: VH SEQ ID NO 570 / VL SEQ ID NO 398 (antibody, IgG4, V domains shown)
VH: B1 VH with L89A
VL: B1 VL with H34A, Q42E, A51T, A100Q
notes: as for B1
B9: VH SEQ ID NO 570 / VL SEQ ID NO 310 (antibody, IgG4, V domains shown)
VH: B1 VH with L89A
VL: B1 VL with V29I, H34A, A100Q
notes: as for B1
B10: VH SEQ ID NO 562 / VL SEQ ID NO 486 (antibody, IgG4, V domains shown)
VH: B1 VH
VL: B1 VL with A84G, A100Q
notes: as for B1
B11: VH SEQ ID NO 562 / VL SEQ ID NO 470 (antibody, IgG4, V domains shown)
VH: B1 VH
VL: B1 VL with A100Q
notes: as for B1
B12: VH SEQ ID NO 570 / VL SEQ ID NO 318 (antibody, IgG4, V domains shown)
VH: B1 VH with L89A
VL: B1 VL with V29I, Q42E, A51T, A100Q
notes: as for B1
B13: VH SEQ ID NO 570 / VL SEQ ID NO 382 (antibody, IgG4, V domains shown)
VH: B1 VH with L89A
VL: B1 VL with V29L, Q42E, A100Q
notes: as for B1
B14: VH SEQ ID NO 570 / VL SEQ ID NO 366 (antibody, IgG4, V domains shown)
VH: B1 VH with L89A
VL: B1 VL with V29L, H34A, Q42E, A100Q
notes: as for B1
B15: VH SEQ ID NO 570 / VL SEQ ID NO 350 (antibody, IgG4, V domains shown)
VH: B1 VH with L89A
VL: B1 VL with V29I, A51T, I106L
notes: as for B1
B16: VH SEQ ID NO 562 / VL SEQ ID NO 494 (antibody, IgG4, V domains shown)
VH: B1 VH
VL: B1 VL with F83V, A100Q
notes: as for B1
B17: VH SEQ ID NO 570 / VL SEQ ID NO 342 (antibody, IgG4, V domains shown)
VH: B1 VH with L89A
VL: B1 VL with V29I, A51T, T69R, I106L
notes: as for B1

Substitutions are numbered along the chain they refer to. Numbers in names are those of the source.

This assay concerns the target T1, recombinant human activated Factor VII …. As to the kind of experiment: BLI (Fortebio).
As for B1, the Kd – broadly, a measure of binding affinity in units of concentration – was found to be 1.4 nM.
To B2 belongs 48 nM.
To B3 belongs 0.55 nM.
To B4 belongs 0.85 nM.
In the case of B5, the Kd was 0.92 nM.
With B6 the figure was 1.1 nM; with B7, 2.6 nM; with B8, 29 nM.
To B9 belongs 13 nM; to B10, 1.3 nM; to B11, 1.4 nM.
With B12 the figure was 0.83 nM.
Consider B13, for which the Kd turned out to be 1.3 nM.
With B14 the figure was 14 nM.
Take B15: the Kd was determined as 1 nM.
For the molecule B16, the Kd came out at 1.6 nM.
With B17 the figure was 1.5 nM.
